What all share (conditions): tags: His-tag, Abcam ab198455, labeled with RED-Tris-NTA
Data set [1] has as its target T1, PHGDH (D-3-phosphoglycerate dehydrogenase) (Homo sapiens, UniProt O43175 SEQ:1-533).
T1 sequence: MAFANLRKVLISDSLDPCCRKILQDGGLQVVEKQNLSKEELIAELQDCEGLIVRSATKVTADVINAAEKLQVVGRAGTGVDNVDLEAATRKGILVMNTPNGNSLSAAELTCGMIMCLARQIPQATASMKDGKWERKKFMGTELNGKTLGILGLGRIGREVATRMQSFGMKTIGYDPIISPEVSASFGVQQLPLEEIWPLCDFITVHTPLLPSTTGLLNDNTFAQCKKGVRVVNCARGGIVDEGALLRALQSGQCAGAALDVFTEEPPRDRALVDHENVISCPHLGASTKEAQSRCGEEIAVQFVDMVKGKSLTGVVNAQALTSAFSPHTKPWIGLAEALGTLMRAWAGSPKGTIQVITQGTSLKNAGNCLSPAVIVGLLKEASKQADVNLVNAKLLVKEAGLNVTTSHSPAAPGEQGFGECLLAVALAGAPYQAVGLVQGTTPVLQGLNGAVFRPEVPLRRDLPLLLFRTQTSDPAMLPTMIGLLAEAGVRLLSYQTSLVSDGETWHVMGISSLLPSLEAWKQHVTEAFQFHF
Put plainly: MST; high response amplitude; fitted to Kd model but no value given; 50 nM PHGDH, RNA 13-850 nM; 10 mM Tris HCl, 50 mM KCl, 0.5 mM EDTA, 0.1 mg/ml BSA, 10% glycerol. Here is the method:
(§1) Data were fitted to the Kd model.
(§2) Microscale thermophoresis experiments were performed using a NanoTemper® Monolith NT.115 (NanoTemper Tenchologies, Germany) with blue and red filters. His-tagged PHGDH protein was labeled using the Monolith His-Tag labeling Kit RED-Tris-NTA 2nd generation (SKU: MO-L018), according to manufacturer's protocol (Step B, Step C). Briefly, 90 μl of PHGDH protein (200 nM) was mixed with 90 μl of dye (100 nM) and incubated for 30 min at RT. Samples were centrifuged for 10 min at 4° C. at 15.000×g and transferred into a fresh tube. RNA was brought to a concentration of 1700 nM and a serial dilution of 1:2 over 16 steps in binding buffer (10 mM Tris HCl, 50 mM KCl, 0.5 mM EDTA, 0.1 mg/ml BSA, 10% (v/v) Rnase/Dnase free glycerol) was performed. Fluorescently labeled protein was added at a final concentration of 50 nM to each tube. 16 capillaries were loaded with IRF1 3′UTR RNA (highest concentration 850 nM) and PHGDH protein (50 nM). Samples were measured with the following settings: 20% LED/excitation and medium MST power. At the final dye concentration of 25 nM, the expected fluorescence intensity at 20% LED/excitation is around 300 counts on a Monolith NT.115.

Data set [2] has as its target T1, PHGDH (D-3-phosphoglycerate …). Put plainly: MST; mutation impeded binding; RNA up to 850 nM, same buffer. How it is done: as §1, §2
Data set [3] has the same target. Put plainly: MST; low response amplitude; no AU-rich elements; RNA up to 850 nM, same buffer. Here is the method: as §2

Consider AGGAAUUGAACUUUUAAUUGCAUUUAAUAAACUGUAUGUAAAUAGUCA (ssRNA) [IRF1 3'UTR fragment 3 (Fg3)], for which the binding result in data set [1] is reported as “binds”.
For AGGAAUUGAACCCUUAAUUGCAUUUAAUAAACUGUAUGUAAAUAGUCA (ssRNA) [mutated fragment 3 (muFg3)], in data set [2], the binding result is recorded as “no binding”.
Regarding ACAUGUGCCAGCUAAGCACUUGAAAUGUGGCCAGUGCAAUA (ssRNA) [IRF1 3'UTR fragment 4 (Fg4)], the binding result in data set [3] is “no binding”.

The record behind these values is patent US20250228941, “CELLULAR THERAPY” (UNIVERSITÄt BASEL, published 2025).
